According to paper PMC12120360, “Lysine acetylation modulates s‐OPA1 GTPase activity and oligomerization in mitochondrial membrane remodeling” (Protein Science : A Publication of the Protein Society, 2025):

Molecular target: the molecule itself
Assay: mass photometry; protein in solution at 75 nM final; 20 mM HEPES-NaOH pH 7.5, 130 mM NaCl, 10 mM KCl, 2 mM MgCl2, 2 mM DTT, 2% glycerol; Refeyn mass photometer; mass measured three times for each protein

Protein	stoichiometry N
s-OPA1 K579R (domain or fragment, human, UniProt O60313-1 195-960, looked up, endogenous lysine acetylation, sites listed in Figure 2c, Optic Atrophy 1 (OPA1), human, short form (s-OPA1), residues 195-960; domain model of isoform 1; Gene bought from Genscript in the pGS-21a vector; source: E. coli BL21 (DE3), purified (glutathione resin, 3C protease cleavage, size exclusion chromatography)) ATDRGSESDKHFRKVSDKEKIDQLQEELLHTQLKYQRILERLEKENKELRKLVLQKDDKGIHHRKLKKSLIDMYSEVLDVLSDYDASYNTQDHLPRVVVVGDQSAGKTSVLEMIAQARIFPRGSGEMMTRSPVKVTLSEGPHHVALFKDSSREFDLTKEEDLAALRHEIELRMRKNVKEGCTVSPETISLNVKGPGLQRMVLVDLPGVINTVTSGMAPDTKETIFSISKAYMQNPNAIILCIQDGSVDAERSIVTDLVSQMDPHGRRTIFVLTKVDLAEKNVASPSRIQQIIEGKLFPMKALGYFAVVTGKGNSSESIEAIREYEEEFFQNSKLLKTSMLKAHQVTTRNLSLAVSDCFWKMVRESVEQQADSFKATRFNLETEWRNNYPRLRELDRNELFEKAKNEILDEVISLSQVTPKHWEEILQQSLWERVSTHVIENIYLPAAQTMNSGTFNTTVDIKLKQWTDKQLPNKAVEVAWETLQEEFSRFMTEPKGKEHDDIFDKLKEAVKEESIKRHKWNDFAEDSLRVIQHNALEDRSISDKQQWDAAIYFMEEALQARLKDTENAIENMVGPDWKKRWLYWKNRTQEQCVHNETKNELEKMLKCNEEHPAYLASDEITTVRKNLESRGVEVDPSLIKDTWHQVYRRHFLKTALNHCNLCRRGFYYYQRHFVDSELECNDVVLFWRIQRMLAITANTLRQQLTNTEVRRLEKNVKEVLEDFAEDGEKKIKLLTGKRVQLAEDLKKVREIQEKLDAFIEALHQEK	2
s-OPA1 K663R (domain or fragment, human, UniProt O60313-1 195-960, looked up, endogenous lysine acetylation, sites listed in Figure 2c, Optic Atrophy 1 (OPA1), human, short form (s-OPA1), residues 195-960; domain model of isoform 1; Gene bought from Genscript in the pGS-21a vector; source: E. coli BL21 (DE3), purified (glutathione resin, 3C protease cleavage, size exclusion chromatography)) ATDRGSESDKHFRKVSDKEKIDQLQEELLHTQLKYQRILERLEKENKELRKLVLQKDDKGIHHRKLKKSLIDMYSEVLDVLSDYDASYNTQDHLPRVVVVGDQSAGKTSVLEMIAQARIFPRGSGEMMTRSPVKVTLSEGPHHVALFKDSSREFDLTKEEDLAALRHEIELRMRKNVKEGCTVSPETISLNVKGPGLQRMVLVDLPGVINTVTSGMAPDTKETIFSISKAYMQNPNAIILCIQDGSVDAERSIVTDLVSQMDPHGRRTIFVLTKVDLAEKNVASPSRIQQIIEGKLFPMKALGYFAVVTGKGNSSESIEAIREYEEEFFQNSKLLKTSMLKAHQVTTRNLSLAVSDCFWKMVRESVEQQADSFKATRFNLETEWKNNYPRLRELDRNELFEKAKNEILDEVISLSQVTPKHWEEILQQSLWERVSTHVIENIYLPAAQTMNSGTFNTTVDIKLKQWTDRQLPNKAVEVAWETLQEEFSRFMTEPKGKEHDDIFDKLKEAVKEESIKRHKWNDFAEDSLRVIQHNALEDRSISDKQQWDAAIYFMEEALQARLKDTENAIENMVGPDWKKRWLYWKNRTQEQCVHNETKNELEKMLKCNEEHPAYLASDEITTVRKNLESRGVEVDPSLIKDTWHQVYRRHFLKTALNHCNLCRRGFYYYQRHFVDSELECNDVVLFWRIQRMLAITANTLRQQLTNTEVRRLEKNVKEVLEDFAEDGEKKIKLLTGKRVQLAEDLKKVREIQEKLDAFIEALHQEK	2
s-OPA1 K663Q (domain or fragment, human, UniProt O60313-1 195-960, looked up, endogenous lysine acetylation, sites listed in Figure 2c, Optic Atrophy 1 (OPA1), human, short form (s-OPA1), residues 195-960; domain model of isoform 1; Gene bought from Genscript in the pGS-21a vector; source: E. coli BL21 (DE3), purified (glutathione resin, 3C protease cleavage, size exclusion chromatography)) ATDRGSESDKHFRKVSDKEKIDQLQEELLHTQLKYQRILERLEKENKELRKLVLQKDDKGIHHRKLKKSLIDMYSEVLDVLSDYDASYNTQDHLPRVVVVGDQSAGKTSVLEMIAQARIFPRGSGEMMTRSPVKVTLSEGPHHVALFKDSSREFDLTKEEDLAALRHEIELRMRKNVKEGCTVSPETISLNVKGPGLQRMVLVDLPGVINTVTSGMAPDTKETIFSISKAYMQNPNAIILCIQDGSVDAERSIVTDLVSQMDPHGRRTIFVLTKVDLAEKNVASPSRIQQIIEGKLFPMKALGYFAVVTGKGNSSESIEAIREYEEEFFQNSKLLKTSMLKAHQVTTRNLSLAVSDCFWKMVRESVEQQADSFKATRFNLETEWKNNYPRLRELDRNELFEKAKNEILDEVISLSQVTPKHWEEILQQSLWERVSTHVIENIYLPAAQTMNSGTFNTTVDIKLKQWTDQQLPNKAVEVAWETLQEEFSRFMTEPKGKEHDDIFDKLKEAVKEESIKRHKWNDFAEDSLRVIQHNALEDRSISDKQQWDAAIYFMEEALQARLKDTENAIENMVGPDWKKRWLYWKNRTQEQCVHNETKNELEKMLKCNEEHPAYLASDEITTVRKNLESRGVEVDPSLIKDTWHQVYRRHFLKTALNHCNLCRRGFYYYQRHFVDSELECNDVVLFWRIQRMLAITANTLRQQLTNTEVRRLEKNVKEVLEDFAEDGEKKIKLLTGKRVQLAEDLKKVREIQEKLDAFIEALHQEK	2
